The record followed here is paper PMC6938348.

Test [1] deals with soluble Her2 ectodomain (Homo sapiens (assumed; species and source not stated)) (UniProt P04626). Put plainly: SPR; antibody captured on an anti-hFc CM-5 surface, soluble Her2 ectodomain flowed (monovalent binding); single cycle kinetics in duplicate, 25°C, PBS with […] EDTA and 0.05% Tween 20; 1:1 binding model; Biacore T200. (In general: SPR reads the build-up and loss of mass on a sensor chip optically.)

The target of test [2] is Her2 on cells (SKOV3, JIMT-1, MCF7) (human (endogenous in SKOV3, JIMT-1, MCF7)) (UniProt P04626).
Test [3] has the same target. This is another data set of the same source.
For test [4] the target is unchanged. Put plainly: flow cytometry on cells; saturation binding of full-size antibodies on live high-Her2 SKOV3 cells, 4°C 2 h, 0 to 200 nM or 1 μM, washed, anti-human Fc AlexaFluor488-(Fab')2 detection; apparent KD. A general note: In flow cytometry, cells or beads pass a laser one at a time.
For test [5] the target is unchanged. Put plainly: flow cytometry on cells; saturation binding of full-size antibodies on live low-Her2 MCF7 cells, 4°C 2 h, 0 to 200 nM or 1 μM, washed, anti-human Fc AlexaFluor488-(Fab')2 detection; apparent KD.
In test [6] the target is Her2 (human (endogenous in SKOV3 and JIMT-1)) (UniProt P04626).
The target is the same in test [7]. The source holds these as a separate data set.
Test [8] deals with bH1 full-size antibody variant 14–13 (H-D98W, H-G99D). Put plainly: SPR; antibody captured on an anti-hFc CM-5 surface, soluble Her2 ectodomain flowed (monovalent binding); single cycle kinetics in duplicate, 25°C, PBS with […] EDTA and 0.05% Tween 20; 1:1 binding model; Biacore T200.
Test [9] has as its target bH1 full-size antibody variant 16–13 (H-G99R). Described as above.
Test [10] addresses Herceptin full-size antibody variant 7–5 (H-Y57A, L-F53N, L-Y92A). The test is described as above.
For test [11], the target named is bH1 full-size antibody variant 15–13 (H-G99D). The test is described as above.
Test [12] has as its target Herceptin full-size antibody variant 7–6 (H-Y57A, L-N30D). The description is as above.
Test [13] deals with Her2 (human (endogenous in SKOV3 and JIMT-1)) (UniProt P04626). The source holds these as a separate data set.
Test [14] has the same target. This is another data set of the same source.
The target is the same in test [15]. This is another data set of the same source.
Test [16] has the same target. The source holds these as a separate data set.

Like-named read-outs stand apart in the source and are kept apart here.

In the case of “Herceptin full-size antibody variant 2–5 (L-F53N, L-Y92A)”, in test [1], the Kd stood at 22.6 nM. In addition, in test [2], the IC50 of cytotoxicity, antibody directly conjugated to DM1, SKOV3 cells is 0.161 nM; the IC50 of cytotoxicity, antibody directly conjugated to PNU, MCF7 cells was found to be 4.72 nM; the IC50 of cytotoxicity, antibody directly conjugated to PNU, SKOV3 cells worked out at 0.138 nM. In [3], the IC50 of cytotoxicity, indirect ADC screen (DM1-conjugated secondary antibody), JIMT1 cells was found to be 8.7 nM; the IC50 of cytotoxicity, indirect ADC screen (DM1-conjugated secondary antibody), MCF7 cells amounted to 8.1 nM; the IC50 of cytotoxicity, indirect ADC screen (MMAE-conjugated secondary antibody), JIMT1 cells is 24.4 nM; the IC50 of cytotoxicity, indirect ADC screen (MMAE-conjugated secondary antibody), MCF7 cells stood at 20.6 nM. In test [4], the Kd came out at 1.98 nM.

Regarding “Herceptin full-size antibody variant 2–4 (L-Y92A)”, the Kd amounted to 2.32 nM in test [1], 0.39 nM in [5] and 1.98 nM in test [4].

In the case of “WT Herceptin full-size antibody (variant 2-1, Parent 1)”, in [6], the EC50 of internalization, direct (pHAb-conjugated antibody variant), JIMT-1 cells, 37°C, 18 h, high content imaging amounted to 0.21 nM; the EC50 of internalization, direct (pHAb-conjugated antibody variant), SKOV3 cells, 37°C, 18 h, high content imaging amounted to 0.32 nM; the EC50 of internalization, indirect (antibody variant + pHAb-secondary antibody), SKOV3 cells, 37°C, 18 h, high content imaging worked out at 0.55 nM.

For the substance “Herceptin full-size antibody variant 12-9 (H-D98F, H-D31K, L-D28K)”, in test [7], the EC50 of internalization, direct (pHAb-conjugated antibody variant), JIMT-1 cells, 37°C, 18 h, high content imaging was found to be 70 pM; the EC50 of internalization, direct (pHAb-conjugated antibody variant), SKOV3 cells, 37°C, 18 h, high content imaging came out at 0.41 nM; the EC50 of internalization, indirect (antibody variant + pHAb-secondary antibody), SKOV3 cells, 37°C, 18 h, high content imaging was 0.41 nM.

One may read the kon as the rate constant with which the complex forms. Low values mean slow association, high ones fast association. Consider “soluble Her2 ectodomain (from UniProt P04626 23-652) (domain or fragment)”, for which the Kd came to 253 nM in test [8]; 417 nM in test [9]; 68.1 nM in [10]; 298 nM in test [11]; 43.2 nM in test [12]. The kon stood at 78000 M⁻¹ s⁻¹ in [8] and 120000 M⁻¹ s⁻¹ in [9].

For the substance “bH1 full-size antibody variant 16-13 (H-G99R)”, the EC50 of internalization, direct (pHAb-conjugated antibody variant), SKOV3 cells, 37°C, 18 h, high content imaging in [13] is 0.0749 µM.

Take “Herceptin full-size antibody variant 7–6 (H-Y57A, L-N30D)”: the values for the Kd in test [5] and in test [4] were 0.95 nM and 3.16 nM, respectively.

With “Herceptin full-size antibody variant 7-5 (H-Y57A, L-F53N, L-Y92A)”, in [14], the EC50 of internalization, direct (pHAb-conjugated antibody variant), SKOV3 cells, 37°C, 18 h, high content imaging came to 0.0192 µM and the EC50 of internalization, indirect (antibody variant + pHAb-secondary antibody), SKOV3 cells, 37°C, 18 h, high content imaging was found to be 0.00199 µM.

Regarding “bH1 full-size antibody variant 14-13 (H-D98W, H-G99D)”, in test [15], the EC50 of internalization, direct (pHAb-conjugated antibody variant), SKOV3 cells, 37°C, 18 h, high content imaging is 0.059 µM and the EC50 of internalization, indirect (antibody variant + pHAb-secondary antibody), SKOV3 cells, 37°C, 18 h, high content imaging was found to be 0.00375 µM.

Turning to “Herceptin full-size antibody variant 2–3 (L-F53N)”, the Kd in test [1] worked out at 2.1 nM; in test [5] it was 0.3 nM; in test [4] it was 1.95 nM.

In [2], “Herceptin full-size antibody variant 7–5 (H-Y57A, L-F53N, L-Y92A)” gave an IC50 of cytotoxicity, antibody directly conjugated to DM1, SKOV3 cells of 2.01 nM and an IC50 of cytotoxicity, antibody directly conjugated to PNU, SKOV3 cells of 2.08 nM. Further, in [5], the Kd worked out at 594 nM. Also, in [3], the IC50 of cytotoxicity, indirect ADC screen (DM1-conjugated secondary antibody), JIMT1 cells was 15.7 nM; the IC50 of cytotoxicity, indirect ADC screen (MMAE-conjugated secondary antibody), JIMT1 cells came to 11000 nM; the IC50 of cytotoxicity, indirect ADC screen (MMAE-conjugated secondary antibody), MCF7 cells stood at 32.4 nM; the IC50 of cytotoxicity, indirect ADC screen (MMAE-conjugated secondary antibody), SKOV3 cells amounted to 0.204 nM. Also, the Kd in test [4] was determined as 3.5 nM.

Take “Herceptin full-size antibody variant 2–6 (L-N30D)”: the Kd was found to be 6.85 nM in test [1], 0.51 nM in test [5] and 2.58 nM in test [4].

Regarding “Herceptin full-size antibody variant 11-9 (H-D98F, H-D31M, L-D28K)”, in [16], the EC50 of internalization, direct (pHAb-conjugated antibody variant), JIMT-1 cells, 37°C, 18 h, high content imaging was 70 pM; the EC50 of internalization, direct (pHAb-conjugated antibody variant), SKOV3 cells, 37°C, 18 h, high content imaging was 0.32 nM; the EC50 of internalization, indirect (antibody variant + pHAb-secondary antibody), SKOV3 cells, 37°C, 18 h, high content imaging was 0.44 nM.

On to “Herceptin full-size antibody variant 7–1 (H-Y57A)”, for which the Kd was found to be 1.6 nM in test [1], 0.52 nM in test [5] and 2.27 nM in test [4].

In the case of “Herceptin full-size antibody variant 7–3 (H-Y57A, L-F53N)”, the Kd in test [1] was 16.1 nM; in [5], 0.67 nM; in [4], 2.34 nM.

Turning to “Herceptin full-size antibody variant 7–4 (H-Y57A, L-Y92A)”, the values for the Kd in [1], in test [5] and in test [4] were 18 nM, 0.47 nM and 2.41 nM, respectively.
